Data set [1] deals with the molecule itself. Put plainly: cryo-EM structure; purified StrepII-tagged FocA solubilised in DDM, 5 mg/mL, vitrified at 4 °C; single-particle reconstruction with C5 symmetry (wild type also C1).
For data set [2], the target named is T1, Pyruvate formate-lyase (PflB), full length, His-tagged (E. coli, UniProt P09373 1-760).
T1 construct: Pyruvate formate-lyase PflB, E. coli, UniProt P09373, full length; also called His-tagged PflB
T1 sequence (looked up): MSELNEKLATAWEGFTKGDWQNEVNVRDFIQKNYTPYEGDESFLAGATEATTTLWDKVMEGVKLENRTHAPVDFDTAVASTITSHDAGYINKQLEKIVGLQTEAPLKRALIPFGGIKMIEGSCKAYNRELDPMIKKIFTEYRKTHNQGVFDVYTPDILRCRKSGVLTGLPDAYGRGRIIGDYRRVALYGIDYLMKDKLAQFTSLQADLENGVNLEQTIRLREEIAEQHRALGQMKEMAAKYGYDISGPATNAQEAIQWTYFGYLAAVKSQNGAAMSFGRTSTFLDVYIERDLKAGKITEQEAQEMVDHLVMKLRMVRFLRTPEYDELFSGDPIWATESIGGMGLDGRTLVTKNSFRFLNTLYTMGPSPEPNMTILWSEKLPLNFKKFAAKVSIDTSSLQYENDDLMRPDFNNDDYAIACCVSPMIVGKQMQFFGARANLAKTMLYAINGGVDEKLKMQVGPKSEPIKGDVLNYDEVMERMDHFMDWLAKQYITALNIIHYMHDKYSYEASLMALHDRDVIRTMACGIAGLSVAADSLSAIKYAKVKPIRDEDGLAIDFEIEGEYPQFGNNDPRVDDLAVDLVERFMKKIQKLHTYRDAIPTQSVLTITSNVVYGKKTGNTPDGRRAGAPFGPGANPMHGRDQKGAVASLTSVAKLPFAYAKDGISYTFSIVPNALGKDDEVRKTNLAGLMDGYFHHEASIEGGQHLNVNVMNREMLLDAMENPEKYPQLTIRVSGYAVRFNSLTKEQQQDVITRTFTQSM
In words: cross-linking; XL-MS with sulfo-SDA: 10 uM FocA modified with 50-fold sulfo-SDA (100 mM MOPS, 150 mM NaCl, DDM, pH 7.0), then mixed with 10 uM PflB and UV-irradiated (365 nm); digest with trypsin and GluC, LC/MS/MS. The note with it: both partners purified.

In data set [3] the target is T1, Pyruvate formate-lyase (PflB), full …. In words: cross-linking; XL-MS with DSBU: 10 uM PflB with equimolar FocA N-terminal peptide, 50- or 100-fold DSBU, 30 min, room temperature, 100 mM MOPS, 150 mM NaCl, pH 7.0; digest with trypsin and GluC, LC/MS/MS. Conditions: both partners purified.

As a reminder, the stoichiometry N is the number of molecules, sites or subunits per partner or assembly.

Ends that are not written are not given here. GS linker = not defined here

B1: FocA (formate channel), wild type, full length, C-terminal StrepII-tag (natural protein, E. coli, UniProt P0AC23 1-285, looked up)
chain: MKADNPFDLLLPAAMAKVAEEAGVYKATKHPLKTFYLAITAGVFISIAFVFYITATTGTGTMPFGMAKLVGGICFSLGLILCVVCGADLFTSTVLIVVAKASGRITWGQLAKNWLNVYFGNLVGALLFVLLMWLSGEYMTANGQWGLNVLQTADHKVHHTFIEAVCLGILANLMVCLAVWMSYSGRSLMDKAFIMVLPVAMFVASGFEHSIANMFMIPMGIVIRDFASPEFWTAVGSAPENFSHLTVMNFITDNLIPVTIGNIIGGGLLVGLTYWVIYLRENDHH
notes: FocA, formate channel of the formate-nitrite transporter family, E. coli, UniProt P0AC23, full length; Pentamer in the cryo-EM structure; In the sulfo-SDA experiment FocA was first modified on amines with sulfo-SDA; also called native FocA; wild-type FocA; source: E. coli BL21(DE3) transformed with pfocA3; solubilised from membranes with DDM, purified (Strep-Tactin Sepharose); not shown: StrepII, …
On to B1, for which the “stoichiometry N” value in data set [1] is 5. The binding result in data set [2] is listed as “binds”.

B2: FocA-H209N variant, C-terminal StrepII-tag (natural protein, E. coli, UniProt P0AC23 1-285, looked up)
chain: MKADNPFDLLLPAAMAKVAEEAGVYKATKHPLKTFYLAITAGVFISIAFVFYITATTGTGTMPFGMAKLVGGICFSLGLILCVVCGADLFTSTVLIVVAKASGRITWGQLAKNWLNVYFGNLVGALLFVLLMWLSGEYMTANGQWGLNVLQTADHKVHHTFIEAVCLGILANLMVCLAVWMSYSGRSLMDKAFIMVLPVAMFVASGFENSIANMFMIPMGIVIRDFASPEFWTAVGSAPENFSHLTVMNFITDNLIPVTIGNIIGGGLLVGLTYWVIYLRENDHH
notes: FocA, E. coli, UniProt P0AC23, with the exchange H209N; made by mutagenesis of pfocA3, which carries the native focA gene; Reconstructed with C5 symmetry; also called H209N-FocA; source: E. coli BL21(DE3) transformed with pfocAH209N; solubilised from membranes with DDM, purified (Strep-Tactin Sepharose); not shown: StrepII, C-terminal, kept
On to B2, for which, in data set [1], the binding result is reported as “binds”.

B3: FocA N-terminal peptide (residues 1-35 of FocA, GS linker, Strep-II tag) (peptide)
peptide: MKADNPFDLLLPAAMAKVAEEAGVYKATKHPLKTF-{GS linker-Strep‑II tag}
modifications: reading uncertain
notes: FocA, E. coli, residues 1-35 (the N-terminus of FocA); Whole peptide as printed, 45 residues: [residues removed]; also called N-terminal FocA peptide (1-45); N-terminal peptide of FocA; source: synthetic peptide (Thermo Fisher); not shown: StrepII (after a GS linker), C-terminal, kept
Consider B3, for which the binding result in data set [3] is given as “binds”.

These data come from publication PMC12559229, “Conserved hydrophilic checkpoints tune FocA-mediated formate:H^+ symport” (Nature Communications, 2025).
